The nature of data set [1]: folding stability dG unfold from trypsin proteolysis; higher = more stable. In outline:
(§1)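 Unfolding free energy was derived, per protease or combined, against a sequence-predicted unfolded-state K50 and a shared folded-state K50, starting from K50 inferred by Bayesian fitting of sequencing counts. Digestion with trypsin and chymotrypsin was carried out on designed mini-proteins under 80 residues without cysteine in a PA-tagged cDNA display construct. Only designs with AlphaFold2 dimer inter-PAE above 15 were kept.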

Data set [2] is described as follows: folding stability dG unfold from chymotrypsin proteolysis; higher = more stable. In outline: as §1
Data set [3] can be described thus: folding stability dG unfold (combined trypsin and chymotrypsin); higher = more stable. In outline: as §1

± gives the half width of the 95% confidence interval.

As to “SAGDAVRIPIRFPNGMQIYSIEINPDENTIKIKIYDPNGYRKFEWTFPVKDPNGDPKLVGKIKFYMRPPSAG [r5_434_TrROS]”, the “folding stability dG unfold” value in data set [1] was determined as 2.01 ± 0.069 kcal/mol; in data set [2], 2.61 ± 0.16 kcal/mol; in data set [3], 2.31 ± 0.23 kcal/mol.
“SAGDFLKNLPPGIKRWRPVASDPDGHFVFVFKYKTPDRPRYMVIQFPPNGRIQDIHIFPPDEADKAVNKSAG [r5_73_TrROS]”: the figures for the “folding stability dG unfold” value in data set [1], in data set [2] and in data set [3] were 0.72 ± 0.073 kcal/mol, 2.04 ± 0.23 kcal/mol and 1.52 ± 0.25 kcal/mol, respectively.
In the case of “SAGDGDKMRGEHEREDPNGKKREVTHEMKVQPPPVPKPKIELPADDIDEIDPDNGTLRNPGNGKPFPIGSAG [r5_807_TrROS]”, the “folding stability dG unfold” value in data set [1] is 0.0244 ± 0.15 kcal/mol; in data set [2] it was -0.465 ± 0.17 kcal/mol; in data set [3], -0.31 ± 0.41 kcal/mol.
Take “SAGDNYREVEYTLKLKNPKGERKLKVKVYYPKGGMFIKIEWPDNGRKIDIPFKSPEDAEETIKDLLDKLSAG [r5_480_TrROS]”: the “folding stability dG unfold” value in data set [1] is 1.71 ± 0.059 kcal/mol; in data set [2], 2.25 ± 0.13 kcal/mol; in data set [3], 2.13 ± 0.22 kcal/mol.
As to “SAGDQTITIKIPNAPPGSRVQIMLFDPGKIKGFHEIDPDDPKEVEIKIELPPYTIMIYVADGNVFPIPISAG [r5_646_TrROS]”, the results for the “folding stability dG unfold” value in data set [1], in data set [2] and in data set [3] were 1.94 ± 0.12 kcal/mol, 2.82 ± 0.059 kcal/mol and 2.46 ± 0.21 kcal/mol, respectively.
For the sequence “SAGDRIRITMPFDDLRKIMDEIGYPPEQMTAEEFADRLAEHFPGVKVDIEMDREDGYFTVEIELPPGMKSAG [r5_264_TrROS]”, the “folding stability dG unfold” value came out at 1.43 ± 0.062 kcal/mol in data set [1], 1.43 ± 0.041 kcal/mol in data set [2] and 1.42 ± 0.18 kcal/mol in data set [3].
On the same counts, the results for “SAGDSIEIMVMVKTPEEAKKLADEIAQILPGNGLNIEITIMPMEELMKMFMEMTKPDPDGEYRRVRMFSAGG [r19_187_TrROS]” are 1.07 ± 0.053 kcal/mol, 1.37 ± 0.13 kcal/mol and 1.3 ± 0.14 kcal/mol.
In the case of “SAGDSVVIPFRLPPENLSPEELLEWIIDEVKEAAKAGLPHKVTIQVPYPGKPWYITIDPKNGEIEIVPSAGG [r19_204_TrROS]”, the “folding stability dG unfold” value in data set [1] was 1.04 ± 0.088 kcal/mol; in data set [2], 1.66 ± 0.085 kcal/mol; in data set [3], 1.52 ± 0.15 kcal/mol.
As to “SAGDTISIMIPPGMSGERAVNQIKYIAREQKENGKKRKITIWMPDPMRARFIKKALDEKGIPIEIEFWSAGG [r19_268_TrROS]”, the “folding stability dG unfold” value in data set [1] came to 1.24 ± 0.049 kcal/mol; in data set [2] it was 0.766 ± 0.11 kcal/mol; in data set [3], 1 ± 0.1 kcal/mol.
Regarding “SAGDVKVITIKNPDGWQASIALNEDGTVYLMFNSPDQFLDLIEDLGFPITSVEMHPNGMMIFTIELPPSAGG [r19_257_TrROS]”, the “folding stability dG unfold” value came out at 2.27 ± 0.061 kcal/mol in data set [1], 4.26 ± 0.17 kcal/mol in data set [2] and 3.41 ± 0.18 kcal/mol in data set [3].
In the same order, the values of “SAGEEKEAKALAEQYAAEFAPKLGMKYEVPEVKVEKDEKTGKITVTVTVKFTFPEPRTVTKKFTIVVPKSAG [r5_381_JUSTAS]” are 2.4 ± 0.14 kcal/mol, 1.61 ± 0.11 kcal/mol and 2.14 ± 0.27 kcal/mol.
In the same order, the values of “SAGEERTVRVEIEIVVKTEEELEALKALFPNAEATRNEDGLLTLRLTIEVRVAPPVVVRDPETNELLELSAG [r5_129_TrROS_Hall]” are 2.56 ± 0.088 kcal/mol, 2.42 ± 0.049 kcal/mol and 2.46 ± 0.11 kcal/mol.
In the case of “SAGEFEVLEVREVDGRLVVRLALPDKPEVVTIVLERHPDGSVRALIEAEGEAADRIVEALPELDEVVVASAG [r5_933_TrMRF]”, the “folding stability dG unfold” value in data set [1] is 1.9 ± 0.036 kcal/mol; in data set [2] it was 2.64 ± 0.11 kcal/mol; in data set [3], 2.46 ± 0.15 kcal/mol.
For “SAGEIAEYIAEYLAQEPGFQDVEVNIKITDIEPPPNGYMYHKIDIHVRVRNPDDGKPREVNFDITFPMPSAG [r5_176_TrROS]”, the “folding stability dG unfold” value in data set [1] came to 1.1 ± 0.084 kcal/mol; in data set [2], 1.83 ± 0.068 kcal/mol; in data set [3], 1.7 ± 0.17 kcal/mol.
With “SAGEIKIEIKKNKNGKLTIRITVKKKDGEEKEIEIEVPENMTAEELAKELEKKGFEITEIKSIEELLKSAGG [r19_263_TrROS_Hall]”, the “folding stability dG unfold” value in data set [1] amounted to 3.89 ± 0.34 kcal/mol; in data set [2] it was 3.83 ± 0.25 kcal/mol; in data set [3], 3.98 ± 0.6 kcal/mol.
For the sequence “SAGEKEVIEIEVRVTVVRRLPEDLSEEQRKALEDELEVEEVTVRVRFDLDTGRIYVEFEDGSRLEFELPSAG [r5_701_TrROS_Hall]”, the “folding stability dG unfold” value in data set [1] stood at 2.67 ± 0.054 kcal/mol; in data set [2], 3.37 ± 0.066 kcal/mol; in data set [3], 3.16 ± 0.1 kcal/mol.
On to “SAGEKKIKIEIKEIKPHENGYLSIKAKAYLEDGKKVAEVYEPYPPNLSLEELIEKVIERLEKEVKEKGESAG [r5_697_TrMRF]”, for which the “folding stability dG unfold” value in data set [1] is 0.445 ± 0.039 kcal/mol; in data set [2] it was -0.207 ± 0.18 kcal/mol; in data set [3], 0.22 ± 0.21 kcal/mol.
As for “SAGEKKLTEEEIKKLVEELLKKLKPGEKEKVTLEIELTLEDGRKVKIRITVEVKDGKLVVKIEVEELPSAGG [r19_220_TrROS_Hall]”, the “folding stability dG unfold” value in data set [1] is 3.65 ± 0.27 kcal/mol; in data set [2], 3.64 ± 0.52 kcal/mol; in data set [3], 3.68 ± 0.46 kcal/mol.
As to “SAGELKITIAVFRPVEKDENGKEVKVELVEVKTITISKEDLTEEEILKLAEELKKKFPNTVILVTIEPSAGG [r19_369_TrROS_Hall]”, the “folding stability dG unfold” value in data set [1] turned out to be 2.59 ± 0.23 kcal/mol; in data set [2] it was 2.93 ± 0.19 kcal/mol; in data set [3] it was 2.91 ± 0.19 kcal/mol.
On to “SAGELKPGQIVVRTIEIDLPEEDEELREAIERGELIELELEDGSRVLMRVERKDGKLRITEVVILPRPESAG [r5_223_TrROS_Hall]”, for which the “folding stability dG unfold” value in data set [1] worked out at 1.66 ± 0.043 kcal/mol; in data set [2], 3.16 ± 0.029 kcal/mol; in data set [3], 2.73 ± 0.062 kcal/mol.
Consider “SAGEPEKVTITLVDEETGVVITIEIDKETKKITITVESEEERERARELAERLAKELEEAGIKVEILPPSAGG [r19_354_TrROS_Hall]”, for which the “folding stability dG unfold” value in data set [1] worked out at 2.91 ± 0.14 kcal/mol; in data set [2], 2.26 ± 0.18 kcal/mol; in data set [3], 2.73 ± 0.16 kcal/mol.
In the same order, the values of “SAGEVELKIVLPKEEIEKILEALRKLAEEAGLEVEVEKIEKKEDGYYVITVTVKFKETEKEIKIEIIIPSAG [r5_41_TrROS_Hall]” are 3 ± 0.51 kcal/mol, 2.55 ± 0.12 kcal/mol and 2.69 ± 0.31 kcal/mol.
For “SAGEVELTEDGSLKITETIEVNGLLFKVTVTIDENGNISVSIEKVEVLPPPPPVEIKLEDEEAKKKALKSAG [r5_715_TrROS_Hall]”, the “folding stability dG unfold” value in data set [1] is 0.26 ± 0.28 kcal/mol; in data set [2], 1.61 ± 0.14 kcal/mol; in data set [3] it was 1.16 ± 0.69 kcal/mol.
In the same order, the values of “SAGFLGFGIEPHPNGWFKIEIMVMFPWPGGWFMFSIDITIPIVPIEPPPPPPVVEPKKENGKPKEWKYDSAG [r5_169_TrROS]” are 1.91 ± 0.13 kcal/mol, 3.38 ± 0.25 kcal/mol and 2.74 ± 0.51 kcal/mol.
As for “SAGFSITVDYEPEKGLWTVTFTSPPSTSPLSPEEVKETAREIAEKQGIKYELIEISREGNTWTMTIKVLSAG [r14_556_JUSTAS]”, the “folding stability dG unfold” value in data set [1] worked out at 4.25 ± 0.18 kcal/mol; in data set [2], 5.48 ± 0.082 kcal/mol; in data set [3] it was 5.39 ± 0.13 kcal/mol.
Take “SAGFTLKLEFPDSTVDVKVTKVDPKNNIIYAEALLPGGEKLTLTYNPETGEIEIEKKKLERTPDGGLEESAG [r14_466_JUSTAS]”: the “folding stability dG unfold” value in data set [1] was found to be 0.279 ± 0.14 kcal/mol; in data set [2], 1.51 ± 0.14 kcal/mol; in data set [3], 1.13 ± 0.16 kcal/mol.
In the same order, the values of “SAGFVMIKIELENPGNGKERELSIIIPYKSQEDARHIAEEIARELAKNGWKIKKIEVMVMPIPPPPDDPSAG [r5_660_TrROS]” are 3.95 ± 0.12 kcal/mol, 5.29 ± 0.16 kcal/mol and 5.1 ± 0.24 kcal/mol.
As for “SAGGAEQAREILKEWGFEISEVDPKKKTVQVTPPESGMPISIDVDEPGQIKIKIRMNGKPRTFEIPPSAGGS [r16_197_TrROS]”, the figures for the “folding stability dG unfold” value in data set [1], in data set [2] and in data set [3] were -0.329 ± 0.24 kcal/mol, -0.634 ± 0.87 kcal/mol and -0.215 ± 0.22 kcal/mol, respectively.
As for “SAGGALANLSPEEIAALLESQGYEVTILEVEEKPGERIVKIRVTVKREDGTVESVEEIELTLPAPDKLSAGG [r13_566_JUSTAS]”, the entries for the “folding stability dG unfold” value in data set [1], in data set [2] and in data set [3] were 3.7 ± 0.11 kcal/mol, 2.05 ± 0.03 kcal/mol and 2.83 ± 0.095 kcal/mol, respectively.
In the same order, the values of “SAGGALILLFPHPESRTVTALFVHPDGGSETIPFPVPESIDSLEEVADRLLREARERFPVPVEVVVASAGGS [r8_166_TrMRF]” are 0.944 ± 0.012 kcal/mol, 1.37 ± 0.033 kcal/mol and 1.2 ± 0.038 kcal/mol.
As for “SAGGAPSSFSTSSDPDGTQLLVVTEPGSGKPRTVRIPPGLNEAVTIPPSRSVSSVELVRVSPASPALLSAGG [r13_122_JUSTAS]”, the results for the “folding stability dG unfold” value in data set [1], in data set [2] and in data set [3] were -1.16 ± 0.46 kcal/mol, -0.734 ± 0.18 kcal/mol and -0.803 ± 0.14 kcal/mol, respectively.
As to “SAGGAPSTFTSTSPEGETTVTTTTTYYPETGTTTTTTTTTNPATGTSTTTTTTTPVAPPQPPLLEAGASAGG [r13_694_JUSTAS]”, the entries for the “folding stability dG unfold” value in data set [1], in data set [2] and in data set [3] were 0.827 ± 0.056 kcal/mol, 1.08 ± 0.047 kcal/mol and 1.05 ± 0.067 kcal/mol, respectively.
As for “SAGGAPVPVSVTVEIFKRPDGYIIKVNIPSGETKTFSSLEELEKFLKENPSLKITKRTTVPIEKYYESSAGG [r13_730_JUSTAS]”, the “folding stability dG unfold” value is 1.94 ± 0.047 kcal/mol in data set [1], 2.83 ± 0.021 kcal/mol in data set [2] and 2.67 ± 0.071 kcal/mol in data set [3].
“SAGGARREIVIEIEADTLEEALAAAREALAALEDPEDLTVTIVVRLPPPPPPPRPRRVRLDGEEVELRSAGG [r13_718_TrROS_Hall]”: the “folding stability dG unfold” value in data set [1] was -0.384 ± 0.75 kcal/mol; in data set [2], 1.32 ± 0.19 kcal/mol; in data set [3], 1.01 ± 0.22 kcal/mol.
In the same order, the values of “SAGGATIEIKELGRDEDTWYFLVTDPGSAEAVKDFIEKFIPPDYDAKIKILSVDPETGKVTALIEIPGSAGG [r13_491_TrMRF]” are 2.23 ± 0.11 kcal/mol, 2.69 ± 0.14 kcal/mol and 2.64 ± 0.15 kcal/mol.
In the case of “SAGGATLTEPETTVEVRFEKLPDGTVIRTTTTITPEGVTTTTEPVPVPPSPGASSEEELEALRAAAAAASAG [r5_272_JUSTAS]”, the “folding stability dG unfold” value in data set [1] amounted to 1.75 ± 0.037 kcal/mol; in data set [2], 1.51 ± 0.037 kcal/mol; in data set [3], 1.6 ± 0.18 kcal/mol.

The record behind these values is the supplement of paper PMC12764529.
